Source: article PMC2647517 (Biochemistry, 2008)
Residue numbers refer to the chain shown, from its start. Numbers in names are those of the source. Where two headings read alike, the source gives them in different places.

Legend:
SEC [1] = target: the molecule itself; assay: SEC
cross-linking = target: the molecule itself; assay: cross-linking
SEC [2] = target: the molecule itself; assay: SEC; remark: listed apart in the source
[3] = target: the molecule itself
SEC + cross-linking [4] = target: the molecule itself; assay: SEC + cross-linking
SEC + cross-linking [5] = target: the molecule itself; assay: SEC + cross-linking; remark: listed apart in the source

B1: Escherichia coli manganese superoxide dismutase, wild type (apoprotein) (enzyme, UniProt P00448 1-206, looked up)
chain: MSYTLPSLPYAYDALEPHFDKQTMEIHHTKHHQTYVNNANAALESLPEFANLPVEELITKLDQLPADKKTVLRNNAGGHANHSLFWKGLKKGTTLQGDLKAAIERDFGSVDNFKAEFEKAAASRFGSGWAWLVLKGDKLAVVSTANQDSPLMGEAISGASGFPIMGLDVWEHAYYLKFQNRRPDYIKEFWNVVNWDEAAARFAAKK
SEC [1]
  stoichiometry N: 2

B2: EC MnSOD Y174C, disulfide form (enzyme, Escherichia coli, UniProt P00448 1-206, looked up)
chain: B1 chain with Y175C
modifications: disulfide between Cys174 of the two subunits
cross-linking
  stoichiometry N: 2

B3: EC MnSOD S126C, free thiol form (enzyme, Escherichia coli, UniProt P00448 1-206, looked up)
chain: B1 chain with S127C
modifications: Cys126 as free thiol (0.99 mol SH/mol protein)
SEC [2]
  stoichiometry N: 2

B4: EC MnSOD (S126C/Y174C), double disulfide form (enzyme, Escherichia coli, UniProt P00448 1-206, looked up)
chain: B1 chain with S127C, Y175C
modifications: disulfides between Cys126 and Cys126 and between Cys174 and Cys174 of the two subunits
cross-linking
  stoichiometry N: 2

B5: EC MnSOD H171A (enzyme, Escherichia coli, UniProt P00448 1-206, looked up)
chain: B1 chain with H172A
[3]
  stoichiometry N: 2

B6: EC MnSOD S126C, disulfide form (enzyme, Escherichia coli, UniProt P00448 1-206, looked up)
chain: B1 chain with S127C
modifications: disulfide between Cys126 of the two subunits
SEC + cross-linking [4]
  stoichiometry N: 2
SEC + cross-linking [5]
  stoichiometry N: 2

B7: EC MnSOD E170C, disulfide form (enzyme, Escherichia coli, UniProt P00448 1-206, looked up)
chain: B1 chain with E171C
modifications: disulfide between Cys170 of the two subunits
cross-linking
  stoichiometry N: 2
